From paper PMC3773880

Target: Rgps of P. gingivalis HG66 (all gingipain activity released in soluble, non-glycosylated form into media)

B1: PD_(RgpB), recombinant N-terminal prodomain of RgpB, P95493 25-229 (domain or fragment)
chain: GPLGSQPAERGRNPQVRLLSAEQSMSKVQFRMDNLQFTGVQTSKGVAQVPTFTEGVNISEKGTPILPILSRSLAVSETRAMKVEVVSSKFIEKKDVLIAPSKGVISRAENPDQIPYVYGQSYNEDKFFPGEIATLSDPFILRDVRGQVVNFAPLQYNPVTKTLRIYTEIVVAVSETAEAGQNTISLVKNSTFTGFEDIYKSVFMNYEATR
  IC50 of inhibition of Rgp activity (L-BAPNA): HG66 (cell-free culture medium): 0.012 µM
  IC50 of inhibition of Rgp activity (L-BAPNA): HG66 (whole culture): 0.116 µM
